Source: article PMC7611325 (Molecular cell, 2021)

Molecular target: PAF1c (Polymerase II associated factor 1 complex; CTR9, Leo1, Paf1, CDC73, WDR61) (UniProt Q6PD62;Q8WVC0;Q8N7H5;Q6P1J9;Q9GZS3)
Assay: pull-down

B1: GST-MYC^1-163 (glutathione-S-transferase fusion protein that encompasses amino acids 1 to 163 of human MYC) (domain or fragment)
chain: MPLNVSFTNRNYDLDYDSVQPYFYCDEEENFYQQQQQSELQPPAPSEDIWKKFELLPTPPLSPSRRSGLCSPSYVAVTPFSLRGDNDGGGGSFSTADQLEMVTELLGGDMVNQSFICDPDDETFIKNIIIQDCMWSGFSAAAKLVSEKLASYQAARKDSGSPN
B1: binds.
